Assay results reported in US20260265316A1, “IMMUNOTHERAPEUTIC METHODS, COMPOUNDS, AND COMPOSITIONS FOR TREATING OR PREVENTING CELIAC DISEASE” (DBV Technologies, priority 2023, published 2026).

How the values were obtained:
[1] = test system: circulating gluten-specific CD4+ T cells in whole blood of HLA-DQ2+ CeD patients; assay: Whole blood IL-2 cytokine release assay, HLA-DQ2+ CeD participants; type: cell-based, human; conditions: 24 hours; for IL-2 response (in words): HLA-DQ2+ donors, whole blood; for mean IL-2 titer: HLA-DQ2+ participants, 10 μM
Text: FIGS. 10A-10B are graphs depicting the evaluation of the ability of various molarities of three gliadin polypeptides (Cv6, Av6, and 4K), two peptide mixes containing either the four individual building blocks BB1, BB2a, BB3a and BB4a (BB1-4a) or two Nexvax2 peptides (Nex01/02), and six individual building blocks or peptides (BB1, BB2a, BB3a, BB4a, Nex01, and Nex02) to restimulate gluten-specific T cell collected from HLA-DQ2+ CeD patients using a whole blood IL-2 release assay. The whole blood cytokine release assay was performed in six HLA-DQ2+ participants with biopsy-confirmed celiac disease. Whole blood was stimulated with the three gliadin polypeptide constructs Cv6, Av6, and 4K at 10, 2.5, and 0.5 μM final molarities, as indicated. Alternatively, whole blood was stimulated with a mix of peptides containing either the four building blocks BB1, BB2a, BB3a, and BB4a (BB1-4a) or Nex01 and Nex 02 (Nex01/02) at 10, 2.5, and 0.5 μM final molarities. Building blocks (BB1, BB2a, BB3a, and BB4a), Nex01, and Nex02 were also tested as individual peptides, at a single concentration of 10 μM. After 24 hours of incubation, the concentration of IL-2 was quantified from plasma using an MSD IL-2 S-plex ELISA. Data are expressed in femtogram/mL of plasma (A), or as fold change from the negative control (PBS 1×) (B). Symbols represent individual participants (patient ID); bars represent median+interquartile range of individual values.
The overarching objective of this assay was to validate that the polypeptide constructs (Cv6, Av6, and 4K) can be recognized and processed by human APCs, and they can then promote the activation of gluten-specific effector/memory CD4^+ T cells in CeD patients. A Cytokine Release Assay (CRA) was used (previously described in the literature: Anderson et al., Clinical & Experimental Immunology, 2021 June; 204(3): 321-334; and in Hardy et al., Frontiers in Immunology, 2021, Vol. 12, Article 661662, the entire contents of each of which are incorporated by reference herein). This assay quantifies IL-2 produced by circulating gluten-specific CD4^+ T cells present in the blood of CeD patients upon in vitro stimulation with gluten-derived antigens. Due to the extremely high sensitivity of this CRA, no oral exposure to gluten was required prior to blood sampling.
Informed consent was obtained from all subjects prior to blood collection.
Unfractionated blood (225 μL per well of a 96-well plate) was then rapidly restimulated for 24 hours with each of three of the polypeptide constructs provided herein (SEQ ID NO:23 wherein X is C [Cv6, i.e., SEQ ID NO:49], SEQ ID NO:23 wherein X is A [Av6, i.e., SEQ ID NO:50], and SEQ ID NO:46 [4K]) and with each of four individual building blocks (SEQ ID NO:15 wherein Z is E [BB1], SEQ ID NO:16 wherein Z is E [BB2a], SEQ ID NO:20 wherein Z is E [BB3a], and SEQ ID NO:18 wherein Z is E [BB4a]). The concentrations of the polypeptide constructs ranged from 0.5 to 10 micromolar, and the concentration for each individual building block was 10 micromolar. […] These two peptides comprise an N-terminal pyroglutamate and a C-terminal amide. Nex01 and Nex02 were the two gliadin peptides used in the Nexvax2 immunotherapeutic vaccine that was intended to restore immune tolerance to gluten in HLA-DQ2.5+ CeD patients. A positive control consisted of blood cells stimulated with phytohemagglutinin (PHA) (10 μg/mL) which activates all T cells regardless of their antigen specificity (i.e., a polyclonal activator). Negative controls consisted of cells treated with buffer only (PBS 1×).
After incubation for 24 hours at 37° C. and 5% CO2, plasma was separated from whole blood by centrifugation. Plasma was collected from each well and replicates (n=6 replicates per test) pooled. All plasma samples were frozen at −80° C. until analysis. Single plasma aliquots (100 μL) were thawed and analyzed in duplicate using MSD IL-2 S-plex according to the manufacturer's instructions.

[2] = Description: Freeze-dried aliquots of the three gliadin polypeptide constructs Cv6, Av6, and 4K, as well as the four building blocks BB1, BB2a, BB3a, and BB4a were reconstituted in pure water, loaded on a PET-Ti backing film and dried in an oven (at ~30° C.). Immediately after drying, dry deposits were reconstituted at five different molarities (approximately 1.8, 0.91, 0.45, 0.091 or 0.045 mM) by pipetting up and down with either pure water (A), PBS 1× (B), or artificial perspiration (C). The concentration in soluble material was measured by HPLC at 215 nm from the solutions recovered from PET-Ti backing films. Data are median+interquartile range of the different molarities tested. Data are expressed as the percentage of soluble material recovered, based on the expected concentration (all values above 100% were set to 100).
Immediately after drying, dry deposits were reconstituted at five different concentrations (20, 10, 5, 1 and 0.5 mg/mL) by pipetting up and down with either pure water (A), PBS 1× (B), or artificial perspiration (C). The concentration in soluble material was measured by HPLC at 215 nm from the solutions recovered from PET-Ti backing films. Data are presented as median+interquartile range of the different molarities tested. Data are expressed as the percentage of soluble material recovered, based on the expected concentration (all values above 100% were set to 100). (D) As an illustration, photographs of the reconstitution of dry deposits with pure water are shown and annotated.
Immediately after drying, deposits were reconstituted by pipetting up and down with each of pure water, PBS 1× at pH 7.0, and artificial perspiration at pH 4.5, each at five different molarities (approximately 1.8, 0.91, 0.45, 0.091, and 0.045 mM). The concentration in soluble material was measured by HPLC at 215 nm.
Immediately after drying, patch deposits were reconstituted by pipetting up and down with each of pure water, PBS 1× at pH 7.0, and artificial perspiration at pH 4.5, at five different concentrations (20, 10, 5, 1, and 0.5 mg/mL). The concentration in soluble material was measured by HPLC at 215 nm.

[3] = type: physicochemical; conditions: for precipitate in solution: pure water, PBS 1×, artificial perspiration, room temperature and 32° C., 24 hours
Text: Dimerization appeared to be faster in artificial perspiration and at higher concentration.

[4] = test system: 3007.28 (DQ2.5-glia-α2 specific) T cell clone; assay: IFN-γ ELISpot T cell clone assay; type: cell-based, human; conditions: 10 μM, 3007.28 clone
[5] = test system: 0177 2.61 (DQ2.5-glia-ω2 specific) T cell clone; assay: IFN-γ ELISpot T cell clone assay; type: cell-based, human; conditions: 10 μM, 0177 2.61 clone
[6] = test system: 3072 1.26 (DQ2.5-glia-α1a specific) T cell clone; assay: IFN-γ ELISpot T cell clone assay; type: cell-based, human; conditions: 10 μM, 3072 1.26 clone

With H-PQPEQPEQPFPEQPQ-NH2 [BB2a] the “IL-2 response (in words)” value [1] was “no or low response” and the “median percentage of soluble material recovered from the patch backing film” value [2] was “above 80%”.

For H-PSGEGSFQPSQENPQ-NH2 [BB4a], the “IL-2 response (in words)” value [1] was “no or low response” and the “median percentage of soluble material recovered from the patch backing film” value [2] was “above 80%”.

B1: QLQPFPQPELPYPQPELPYPQPELPYPQPQPGPRRKKPQPEQPEQPFPEQPQGARRKKPQQPFPQPEQPFPWQPQGPKKPSGEGSFQPSQENPQ (peptide)
chain: QLQPFPQPELPYPQPELPYPQPELPYPQPQPGPRRKKPQPEQPEQPFPEQPQGARRKKPQQPFPQPEQPFPWQPQGPKKPSGEGSFQPSQENPQ
For B1, the precipitate in solution [3] was “no precipitate was observed”, the “mean spot forming units (IFN-γ ELISpot)” value [4] was 122 and the “mean spot forming units (IFN-γ ELISpot)” value [5] was 12. The “mean spot forming units (IFN-γ ELISpot)” value [6] was 183 and the “mean IL-2 titer” value [1] was 6664 fg/mL.

B2: QLQPFPQPELPYPQPELPYPQPELPYPQPQPGPRRKKPQPEQPEQPFPEQPQGCRRKKPQQPFPQPEQPFPWQPQGPKKPSGEGSFQPSQENPQ (peptide)
chain: QLQPFPQPELPYPQPELPYPQPELPYPQPQPGPRRKKPQPEQPEQPFPEQPQGCRRKKPQQPFPQPEQPFPWQPQGPKKPSGEGSFQPSQENPQ
In the case of B2, the “dimer formation in solution (HPLC and LC-MS)” value ([3]; faster in artificial perspiration and at higher concentration) is reported as “forms some dimers in solution”, the “mean spot forming units (IFN-γ ELISpot)” value [4] is reported as 117 and the “mean spot forming units (IFN-γ ELISpot)” value [5] is reported as 16. The “mean spot forming units (IFN-γ ELISpot)” value [6] was 159 and the “mean IL-2 titer” value [1] was 4858 fg/mL.

B3: QLQPFPQPELPYPQPELPYPQPELPYPQPQPKKKKPQPEQPEQPFPEQPQKKKKPQQPFPQPEQPFPWQPQKKKKPSGEGSFQPSQENPQ (peptide)
chain: QLQPFPQPELPYPQPELPYPQPELPYPQPQPKKKKPQPEQPEQPFPEQPQKKKKPQQPFPQPEQPFPWQPQKKKKPSGEGSFQPSQENPQ
With B3 the precipitate in solution [3] was “no precipitate was observed”, the “mean spot forming units (IFN-γ ELISpot)” value [4] was 109 and the “mean spot forming units (IFN-γ ELISpot)” value [5] was 11. The “mean spot forming units (IFN-γ ELISpot)” value [6] was 177 and the “mean IL-2 titer” value [1] was 7199 fg/mL.
